Results published in the supplement of paper PMC11136658.

Tested on: peptide library, one residue held at a place counted from the Y acceptor
Assay: relative phosphorylation of the sub-library (ratio to the mean residue at this position); higher = residue favoured
Summary of the method: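 Peptide library mixtures, biotinylated and centred on Tyr, each fixed one residue at one position from −5 to +5. Purified recombinant kinases were incubated with them for 90 min in 384-well plates alongside 50 μM ATP and γ-32P-ATP, and the captured, rinsed peptides on streptavidin membranes were measured by phosphorimaging and ImageQuant. Normalization divided each position's intensities by the sum of its 18 randomized residues (16 for the Ser/Thr-free library) and multiplied by that number, so that values give phosphorylation relative to the mean randomized residue.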

Chain of JAK2, construct: aa809-end plus 9aa C-term extension from Gateway cloning, human (O60674 809-1132, looked up): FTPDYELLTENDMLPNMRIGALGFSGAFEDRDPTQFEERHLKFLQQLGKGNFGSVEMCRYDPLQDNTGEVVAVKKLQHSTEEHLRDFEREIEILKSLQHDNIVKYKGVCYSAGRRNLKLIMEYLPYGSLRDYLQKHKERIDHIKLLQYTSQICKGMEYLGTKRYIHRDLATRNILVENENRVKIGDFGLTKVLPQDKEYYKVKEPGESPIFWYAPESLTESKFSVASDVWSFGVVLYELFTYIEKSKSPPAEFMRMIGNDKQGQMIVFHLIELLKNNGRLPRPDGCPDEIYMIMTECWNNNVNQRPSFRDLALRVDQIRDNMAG
Chain of JAK3, construct: aa795-end, human (P52333 795-1124, looked up): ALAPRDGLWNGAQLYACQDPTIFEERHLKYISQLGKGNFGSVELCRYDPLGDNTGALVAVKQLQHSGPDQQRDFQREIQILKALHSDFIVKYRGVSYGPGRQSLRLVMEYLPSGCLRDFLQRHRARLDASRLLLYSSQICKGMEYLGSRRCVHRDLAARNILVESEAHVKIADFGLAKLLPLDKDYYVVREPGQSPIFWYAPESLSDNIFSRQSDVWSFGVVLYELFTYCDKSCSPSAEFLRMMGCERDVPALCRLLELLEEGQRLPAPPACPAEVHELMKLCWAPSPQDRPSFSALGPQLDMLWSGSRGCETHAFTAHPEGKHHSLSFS
Chain of ITK, construct: aa352-end, human (Q08881 352-620, looked up): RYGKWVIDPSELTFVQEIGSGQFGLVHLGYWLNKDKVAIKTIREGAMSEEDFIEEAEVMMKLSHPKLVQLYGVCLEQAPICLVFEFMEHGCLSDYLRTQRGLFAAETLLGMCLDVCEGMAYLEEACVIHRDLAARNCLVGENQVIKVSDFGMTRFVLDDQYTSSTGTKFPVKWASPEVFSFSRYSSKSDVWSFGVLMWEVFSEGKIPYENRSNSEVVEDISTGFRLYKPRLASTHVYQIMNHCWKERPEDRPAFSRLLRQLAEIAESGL

ITK, construct: aa352-end, human (from UniProt Q08881)
relative phosphorylation
Details | at +1 | at +2 | at +3 | at +4 | at +5 | at -1 | at -2 | at -3 | at -4 | at -5
A fixed | 1.81 | 1.06 | 0.772 | 0.857 | 1.11 | 0.551 | 1.01 | 0.947 | 1.03 | 0.997
D fixed | 0.732 | 0.669 | 0.309 | 0.622 | 0.886 | 0.754 | 1.41 | 1.36 | 1.33 | 1.21
E fixed | 1.51 | 1.13 | 0.274 | 0.821 | 0.792 | 0.709 | 1.51 | 1.52 | 1.38 | 1.08
F fixed | 0.572 | 1.07 | 1.85 | 0.763 | 0.705 | 1.81 | 0.627 | 0.793 | 0.672 | 0.935
G fixed | 1.08 | 0.639 | 0.788 | 1.26 | 1.1 | 0.384 | 1.43 | 1.21 | 1.17 | 1.13
H fixed | 0.606 | 0.801 | 2.11 | 0.96 | 0.926 | 0.991 | 0.812 | 1.03 | 1.01 | 1.13
I fixed | 1.51 | 1.12 | 0.913 | 0.996 | 0.332 | 2.5 | 0.548 | 0.511 | 0.759 | 0.718
K fixed | 0.337 | 0.697 | 0.722 | 1.34 | 1.39 | 0.291 | 0.703 | 0.694 | 0.953 | 1.06
L fixed | 0.606 | 0.908 | 0.832 | 0.771 | 0.72 | 2.16 | 0.969 | 0.666 | 0.743 | 0.757
M fixed | 1.17 | 0.976 | 1.06 | 1.04 | 1.24 | 1.22 | 0.645 | 0.752 | 0.816 | 0.896
N fixed | 0.361 | 1.06 | 0.757 | 0.846 | 1.06 | 0.585 | 1.33 | 1.39 | 1.15 | 1.24
P fixed | 0.172 | 0.791 | 0.868 | 1.08 | 1.49 | 0.48 | 1.43 | 1.27 | 1.15 | 1.07
Q fixed | 1.03 | 0.901 | 0.885 | 1.19 | 1.15 | 0.648 | 1.24 | 1.16 | 1.39 | 1.24
R fixed | 0.432 | 0.987 | 1.41 | 1.32 | 1.55 | 0.308 | 0.64 | 0.774 | 1.05 | 1.14
S fixed | 1.4 | 1.22 | 0.997 | 1.07 | 1.14 | 0.489 | 1.28 | 1.31 | 1.05 | 1.01
T fixed | 1.36 | 1.45 | 0.767 | 1.12 | 1.01 | 1.19 | 1.05 | 1.1 | 0.807 | 0.902
V fixed | 2.08 | 1.24 | 1.04 | 1.16 | 0.772 | 1.57 | 0.764 | 0.752 | 0.84 | 0.797
W fixed | 1.23 | 1.27 | 1.65 | 0.785 | 0.634 | 1.36 | 0.605 | 0.759 | 0.706 | 0.692
pThr fixed | 2.18 | 2.7 | 0.354 | 0.462 | 0.524 | 1.68 | 1.08 | 0.871 | 1.02 | 0.887
pTyr fixed | 1.11 | 3.73 | 0.518 | 0.754 | 0.65 | 1.48 | 1.02 | 1.2 | 1.23 | 2.07

JAK2, construct: aa809-end plus 9aa C-term extension from Gateway cloning, human (from UniProt O60674)
relative phosphorylation
Details | at +1 | at +2 | at +3 | at +4 | at +5 | at -1 | at -2 | at -3 | at -4 | at -5
A fixed | 1.07 | 0.945 | 0.889 | 0.971 | 1.11 | 1.13 | 0.982 | 1.02 | 1.07 | 1.08
D fixed | 0.252 | 0.644 | 0.411 | 0.858 | 0.792 | 1.32 | 0.91 | 1 | 1.04 | 0.999
E fixed | 0.45 | 0.78 | 0.33 | 0.934 | 0.764 | 1.18 | 0.98 | 1.01 | 1.26 | 0.926
F fixed | 1.63 | 1.08 | 1.42 | 1.12 | 1.02 | 1.11 | 0.961 | 1.05 | 1.09 | 1.07
G fixed | 0.48 | 0.786 | 0.788 | 1.13 | 1.25 | 0.999 | 1.14 | 1.18 | 1.36 | 1.1
H fixed | 1.42 | 0.785 | 1.12 | 1.05 | 1.04 | 1.05 | 1.07 | 0.901 | 0.929 | 0.919
I fixed | 1.97 | 0.961 | 1.94 | 0.87 | 0.922 | 1.26 | 1.04 | 0.953 | 0.963 | 1.06
K fixed | 0.447 | 1.23 | 0.52 | 1.11 | 0.962 | 0.659 | 0.998 | 0.825 | 0.861 | 0.903
L fixed | 1.55 | 1.08 | 1.43 | 0.892 | 0.927 | 1.11 | 1.05 | 1.03 | 1.05 | 1.07
M fixed | 1.35 | 1 | 1.25 | 1.15 | 0.946 | 0.87 | 0.794 | 0.901 | 0.997 | 1.05
N fixed | 0.45 | 0.982 | 0.681 | 0.846 | 0.871 | 0.762 | 0.981 | 1.01 | 0.849 | 1.02
P fixed | 0.566 | 1.03 | 1.24 | 1.04 | 1.64 | 1.16 | 1.13 | 1.45 | 1.16 | 1.22
Q fixed | 0.9 | 0.975 | 0.667 | 1.12 | 0.867 | 0.745 | 0.954 | 0.824 | 1.11 | 1.01
R fixed | 0.623 | 1.2 | 0.686 | 1.09 | 0.931 | 0.616 | 0.984 | 0.757 | 0.886 | 0.877
S fixed | 0.814 | 1.02 | 0.893 | 0.966 | 1.1 | 0.987 | 1.05 | 1.02 | 0.772 | 0.927
T fixed | 1.09 | 1.07 | 1.17 | 0.909 | 1.06 | 0.989 | 0.98 | 0.976 | 0.716 | 0.824
V fixed | 1.76 | 1.1 | 1.35 | 0.915 | 0.886 | 1.14 | 0.983 | 1.03 | 0.836 | 0.988
W fixed | 1.18 | 1.32 | 1.23 | 1.04 | 0.914 | 0.909 | 1 | 1.05 | 1.05 | 0.952
pThr fixed | 0.332 | 0.537 | 0.205 | 0.53 | 0.543 | 1.1 | 0.744 | 0.944 | 1 | 0.905
pTyr fixed | 0.814 | 0.927 | 0.422 | 0.803 | 0.643 | 1.59 | 0.983 | 1.35 | 1.4 | 1.15

JAK3, construct: aa795-end, human (from UniProt P52333)
relative phosphorylation
Details | at +1 | at +2 | at +3 | at +4 | at +5 | at -1 | at -2 | at -3 | at -4 | at -5
A fixed | 0.882 | 0.772 | 0.718 | 0.933 | 1.08 | 0.848 | 0.973 | 1.02 | 1.07 | 1.1
D fixed | 0.438 | 0.975 | 0.429 | 0.902 | 0.84 | 3 | 1.02 | 1.3 | 1.08 | 1.09
E fixed | 0.497 | 0.834 | 0.342 | 0.687 | 0.843 | 2.01 | 1.05 | 1.18 | 1.22 | 0.94
F fixed | 2.22 | 1.17 | 1.18 | 1.07 | 0.874 | 0.763 | 0.839 | 0.962 | 1.05 | 1.02
G fixed | 0.36 | 0.532 | 0.643 | 1.08 | 1.1 | 0.699 | 1.24 | 1.07 | 1.07 | 1.2
H fixed | 1.44 | 0.984 | 1.19 | 1.01 | 0.967 | 0.968 | 1.03 | 1.11 | 1.04 | 1.12
I fixed | 1.17 | 0.644 | 1.54 | 0.676 | 0.66 | 0.817 | 0.597 | 0.632 | 0.682 | 0.736
K fixed | 0.436 | 0.82 | 0.794 | 1.29 | 1.24 | 0.493 | 0.982 | 0.857 | 0.91 | 1.12
L fixed | 0.877 | 0.998 | 1.71 | 0.839 | 0.771 | 0.69 | 0.862 | 0.707 | 0.726 | 0.793
M fixed | 1.06 | 1.21 | 1.5 | 0.883 | 0.852 | 0.593 | 0.86 | 0.72 | 0.847 | 0.828
N fixed | 0.54 | 1.17 | 0.7 | 0.965 | 1.22 | 1.31 | 1.31 | 1.41 | 1.04 | 0.946
P fixed | 0.455 | 0.945 | 0.773 | 1.02 | 1.22 | 0.759 | 1.07 | 1.07 | 1.11 | 1.03
Q fixed | 1.04 | 1.02 | 0.883 | 1.22 | 1.13 | 0.874 | 1.31 | 1.15 | 1.11 | 0.971
R fixed | 0.665 | 0.876 | 1.03 | 1.3 | 1.46 | 0.55 | 1.1 | 1.01 | 1.15 | 1.14
S fixed | 0.697 | 0.848 | 0.916 | 1.11 | 1.4 | 0.831 | 1.22 | 1.21 | 1.07 | 1.05
T fixed | 0.73 | 0.902 | 1.15 | 0.972 | 0.959 | 0.935 | 0.989 | 1.07 | 0.839 | 0.973
V fixed | 1.65 | 0.807 | 1.2 | 0.819 | 0.716 | 0.842 | 0.671 | 0.72 | 0.7 | 0.77
W fixed | 2.27 | 2.25 | 1.37 | 1.31 | 1.03 | 0.791 | 1.09 | 1.1 | 1.19 | 1.19
pThr fixed | 0.626 | 1.2 | 0.391 | 0.528 | 0.682 | 2.23 | 1 | 1.16 | 1.01 | 0.871
pTyr fixed | 1.04 | 0.925 | 0.369 | 0.583 | 0.725 | 2.37 | 1.05 | 1.32 | 1.01 | 0.825
